# B1: IR-11 (ssDNA)
# DNA: GAGTGACCGTCTGCCTGTAAGGTTTAAGCTTGGCCTAATGGTGCTATCAGGCTCAGCAGCCACACCACCAGCC
# B2: ERBB2-12 (ssDNA)
# DNA: GAGTGACCGTCTGCCTGTCCTGGCATGTTCGATGGAGGCCTTTGATTACAGCCCAGACAGCCACACCACCAGCC
# B3: ERBB2-1 (ssDNA)
# DNA: GAGTGACCGTCTGCCTGATGTTAGAGTTTGCCTGAGTGCCTCGTAAGGGCGTAACAACAGCCACACCACCAGCC
# B4: IR-6 (ssDNA)
# DNA: GAGTGACCGTCTGCCTGTGGGTACAGTCTTTAGCTTACACAGGCTCCTGAAGACGCACAGCCACACCACCAGCC
# B5: ERBB2-10 (ssDNA)
# DNA: GAGTGACCGTCTGCCTGGTTAGACTGAACGCACTGAGGGCCGCAGCCTATCTGAAGGCAGCCACACCACCAGCC
# B6: IR-25 (ssDNA)
# DNA: GAGTGACCGTCTGCCTGAGATCCGACTGTTTACTGTTTAACAGCCGGCTGATGGACCCAGCCACACCACCAGCC
# B7: IR-13 (ssDNA)
# DNA: GAGTGACCGTCTGCCTGTTATCCACTATGGCTTCTCATTCAAATAAGTGCGATCGATCAGCCACACCACCAGCC
# B8: ERBB2-19 (ssDNA)
# DNA: GAGTGACCGTCTGCCTGATTAGATGAAAGCGCATTCCAACAACAGATAATCTGAGGGCAGCCACACCACCAGCC
# Assays:
# Insulin receptor (IR) [1] = molecular target: T1, Insulin receptor (IR) (Homo sapiens, UniProt P06213-2;P06213-2 P06213-2:28-746,P06213-2:751-944); assay: filter; +/-0.26; same buffer, 5 mM MgCl2, 37 C; conditions: tags: His-tagged; R&D Systems Cat# 1544-IR; chain copies: 2; label: 5'-32P
# Protocol: (§1) Aptamers identified using the above SELEX process were amplified by PCR and cloned as described above. Up to fifty randomly picked plasmid clones were sequenced. To verify that cloned aptamers bind to IR or ERBB2, aptamers that had same sequence in the aptamer pool were tested for binding affinity. Briefly, aptamers were incubated with various concentrations of target His-tagged proteins and the target His-tagged proteins were captured on Talon bead. Radio labeled aptamers that were bound to target proteins were then detected by phosphoimager.
# (§2) Specifically, Aptamer-protein equilibrium dissociation constants (Kd's) were determined by the nitrocellulose-filter binding method as described by White et al. in Mol. Ther., 2001, 4(6), 567-73. For all binding assays, aptamers were dephosphorylated using alkaline phosphatase (New England Biolab) and labeled at the 5′-end using T4 polynucleotide kinase (New England Biolabs, Beverly, Mass.) and [γ³²P]ATP (Amersham Pharmacia Biotech, Piscataway, N.J.) as described by Fitzwater et al., in Methods Enzymol, 1996, 267, 275-301. […] The fraction of bound aptamer was quantified with a PhosphorImager (Fuji FLA-5100 Image Analyzer, Tokyo, Japan). […]
# ERBB2 (HER2) [2] = molecular target: T2, ERBB2 (HER2) (UniProt P04626 P04626:23-652); assay: filter; +/-0.12; 40 mM HEPES pH 7.5, 120 mM NaCl, 5 mM KCl, 5 mM MgCl2, 0.002% tween-20, 37 C; conditions: tags: His-tagged; R&D Systems Cat# 1129-ER; label: 5'-32P
# Protocol: as §1, §2
# ERBB2 (HER2) [3] = molecular target: T2, ERBB2 (HER2); assay: filter; +/-0.20; same buffer, 37 C; not competing with ERBB2-12; conditions: tags: His-tagged; R&D Systems Cat# 1129-ER; label: 5'-32P
# Insulin receptor (IR) [4] = molecular target: T1, Insulin receptor (IR); assay: FP; placeholder; conditions: tags: His-tagged; R&D Systems Cat# 1544-IR; chain copies: 2; label: 5'-32P
# Insulin receptor (IR) [5] = molecular target: T1, Insulin receptor (IR); assay: filter; +/-1.08; 40 mM HEPES pH 7.5, 120 mM NaCl, 5 mM KCl, 5 mM MgCl2, 0.002% tween-20, 37 C; not competing with IR-13; conditions: tags: His-tagged; R&D Systems Cat# 1544-IR; chain copies: 2; label: 5'-32P
# ERBB2 (HER2) [6] = molecular target: T2, ERBB2 (HER2); assay: filter; +/-0.39; same buffer, 37 C; conditions: tags: His-tagged; R&D Systems Cat# 1129-ER; label: 5'-32P
# Protocol: as §1, §2
# Insulin receptor (IR) [7] = molecular target: T1, Insulin receptor (IR); assay: filter; +/-0.28; same buffer, 5 mM MgCl2, 37 C; conditions: tags: His-tagged; R&D Systems Cat# 1544-IR; chain copies: 2; label: 5'-32P
# Protocol: as §1, §2
# Insulin receptor (IR) [8] = molecular target: T1, Insulin receptor (IR); assay: filter; +/-0.78; same buffer, 5 mM MgCl2, 37 C; conditions: tags: His-tagged; R&D Systems Cat# 1544-IR; chain copies: 2; label: 5'-32P
# Protocol: as §1, §2
# ERBB2 (HER2) [9] = molecular target: T2, ERBB2 (HER2); assay: filter; +/-1.25; same buffer, 37 C; conditions: tags: His-tagged; R&D Systems Cat# 1129-ER; label: 5'-32P
# Protocol: as §1, §2
# T1 sequence (P06213 other isoform, or with tags, fused parts or gaps, chain 1 of 2): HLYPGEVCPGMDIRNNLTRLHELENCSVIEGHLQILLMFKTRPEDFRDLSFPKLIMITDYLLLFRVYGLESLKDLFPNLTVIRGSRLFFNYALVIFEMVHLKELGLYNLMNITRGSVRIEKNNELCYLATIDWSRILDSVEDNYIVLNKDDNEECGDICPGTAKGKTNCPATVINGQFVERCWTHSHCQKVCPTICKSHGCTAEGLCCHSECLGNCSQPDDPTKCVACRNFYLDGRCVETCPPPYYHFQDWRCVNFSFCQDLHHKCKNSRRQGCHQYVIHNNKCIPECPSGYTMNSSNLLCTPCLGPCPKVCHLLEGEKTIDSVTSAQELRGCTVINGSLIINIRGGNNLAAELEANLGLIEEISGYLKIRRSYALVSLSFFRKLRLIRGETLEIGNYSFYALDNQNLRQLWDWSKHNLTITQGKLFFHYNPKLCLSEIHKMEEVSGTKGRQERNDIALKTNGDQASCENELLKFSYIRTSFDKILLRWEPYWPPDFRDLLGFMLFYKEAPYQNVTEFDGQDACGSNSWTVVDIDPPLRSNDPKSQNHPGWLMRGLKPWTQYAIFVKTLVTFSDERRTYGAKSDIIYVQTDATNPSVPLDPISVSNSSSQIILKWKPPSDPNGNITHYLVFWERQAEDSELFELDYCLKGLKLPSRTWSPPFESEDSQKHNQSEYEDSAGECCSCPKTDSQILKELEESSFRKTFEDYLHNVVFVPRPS
# T1 sequence (P06213 763-956, chain 2 of 2): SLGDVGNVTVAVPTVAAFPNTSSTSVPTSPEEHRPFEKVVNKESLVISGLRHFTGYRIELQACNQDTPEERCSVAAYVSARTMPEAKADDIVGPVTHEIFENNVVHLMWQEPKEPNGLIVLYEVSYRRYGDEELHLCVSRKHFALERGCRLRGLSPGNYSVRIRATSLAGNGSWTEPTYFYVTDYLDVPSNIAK
binder,measurement,setting,value
B1,Kd,Insulin receptor (IR) [1],5.48 nM
B2,Kd,ERBB2 (HER2) [2],0.78 nM
B3,Kd,ERBB2 (HER2) [3],3.05 nM
B4,Kd,Insulin receptor (IR) [4],4.6 nM
same,Kd,Insulin receptor (IR) [5],4.6 nM
B5,Kd,ERBB2 (HER2) [6],3.7 nM
B6,Kd,Insulin receptor (IR) [7],13.3 nM
B7,Kd,Insulin receptor (IR) [8],4.83 nM
B8,Kd,ERBB2 (HER2) [9],15.8 nM
